Target: T1, biotinylated histone H3K14ac(1–20) peptide (acetyl-lysine at K14; biotin on the added C-terminal lysine; C-terminal amide (CONH2))
T1 construct: histone H3, residues 1-20; added C-terminal lysine that carries the biotin; also called H3K14ac peptide; Kac peptide; source: synthetic peptide, bought: Peptide 2.0
Experiment: AlphaScreen or HTRF; full titration: His6-PBRM1-BD4 protein 0.001–2 μM against 50 nM biotinylated H3K14ac(1–20) peptide; streptavidin donor and nickel-chelate acceptor beads; 1× AlphaLISA Epigenetics buffer, 0.05% Tween 20, 2 μM TCEP; room temperature; n = 3
Conditions: both partners purified

| EC50 [nM] | fold reduction of affinity against WT [fold] | Binder |
| --- | --- | --- |
| 490 ± 130 |  | PBRM1-BD4 M586I (domain or fragment, human, UniProt Q86U86-5 496-637, looked up, polybromo-1 (PBRM1), fourth bromodomain (BD4) construct, aa 496-637, cancer-associated missense variant; source: E. coli BL21(DE3), purified (Ni-NTA, gel filtration)) GDSMISSATSDTGSAKRKSKKNIRKQRMKILFNVVLEAREPGSGRRLCDLFMVKPSKKDYPDYYKIILEPMDLKIIEHNIRNDKYAGEEGIIEDMKLMFRNARHYNEEGSQVYNDAHILEKLLKEKRKELGPLPDDDDMASP |
| 210 ± 20 | 2 to 15 | PBRM1-BD4 R576L (domain or fragment, human, UniProt Q86U86-5 496-637, looked up, polybromo-1 (PBRM1), fourth bromodomain (BD4) construct, aa 496-637, cancer-associated missense variant; source: E. coli BL21(DE3), purified (Ni-NTA, gel filtration)) GDSMISSATSDTGSAKRKSKKNIRKQRMKILFNVVLEAREPGSGRRLCDLFMVKPSKKDYPDYYKIILEPMDLKIIEHNILNDKYAGEEGMIEDMKLMFRNARHYNEEGSQVYNDAHILEKLLKEKRKELGPLPDDDDMASP |
| 1000 ± 90 | 2 to 15 | PBRM1-BD4 P556S (domain or fragment, human, UniProt Q86U86-5 496-637, looked up, polybromo-1 (PBRM1), fourth bromodomain (BD4) construct, aa 496-637, cancer-associated missense variant; source: E. coli BL21(DE3), purified (Ni-NTA, gel filtration)) GDSMISSATSDTGSAKRKSKKNIRKQRMKILFNVVLEAREPGSGRRLCDLFMVKPSKKDYSDYYKIILEPMDLKIIEHNIRNDKYAGEEGMIEDMKLMFRNARHYNEEGSQVYNDAHILEKLLKEKRKELGPLPDDDDMASP |

Source: article PMC11002309, “Cancer-associated polybromo-1 bromodomain 4 missense variants variably impact bromodomain ligand binding and cell growth suppression” (The Journal of Biological Chemistry, 2024)
